Laboratory results taken from patent US20120244171A1 (IMMUNOGEN, published 2012).

Biological target: human folate receptor 1 (human, UniProt P15328 25-234)
Test: cell-based or functional assay

human folate receptor 1, sequence (P15328 25-234): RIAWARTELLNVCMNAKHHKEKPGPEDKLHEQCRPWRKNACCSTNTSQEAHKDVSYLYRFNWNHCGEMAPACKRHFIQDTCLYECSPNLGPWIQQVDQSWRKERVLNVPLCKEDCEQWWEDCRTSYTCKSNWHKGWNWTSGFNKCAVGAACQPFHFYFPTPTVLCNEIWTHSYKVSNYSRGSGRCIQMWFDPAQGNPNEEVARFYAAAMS

B1: huFOLR1-SPDB-1f conjugate (antibody, human IgG1, kappa, V domains shown)
VH: QVQLVQSGAEVVKPGASVKISCKASGYTFTGYFMNWVKQSPGQSLEWIGRIHPYDGDTFYNQKFQGKATLTVDKSSNTAHMELLSLTSEDFAVYYCTRYDGSRAMDYWGQGTTVTVSS
VL: DIVLTQSPLSLAVSLGQPAIISCKASQSVSFAGTSLMHWYHQKPGQQPRLLIYRASNLEAGVPDRFSGSGSKTDFTLTISPVEAEDAATYYCQQSREYPYTFGGGTKLEIKR
modifications: compound 1f linked through the SPDB linker; positions not given
  fold loss of cytotoxic potency when blocked with unconjugated antibody: 40 fold
  fold reduction of cytotoxic effect on KB cells by an excess of unconjugated huFOLR1 antibody: > 40 fold
  in vitro cytotoxicity IC50 on antigen positive KB cells: 55 pM
